Here are results for two molecules from patent US20230279121A1.

Experiment [1] addresses Rhesus macaque EGFR (Rhesus macaque) (UniProt P55245). The experiment in a line: SPR. A general note: In SPR one partner is held on a chip, and binding of the other changes the refractive index at the surface.
Another experiment deals with human EGFR (human) (UniProt P00533). The experiment in a line: SPR.
The target in experiment [2] is recombinant human EGFR-His (human) (UniProt P00533). The experiment in a line: SPR, Biacore 8K, 37 C; protein captured on anti-hFc IgG chip, EGFR-His injected; N = 4.

In general, Kd refers to the free concentration of one partner at which half of the binding sites on the other are occupied at equilibrium, for simple one-to-one binding. One may read the koff as the rate constant with which the complex falls apart. A word on the kon: it is the rate constant with which the complex forms.

In experiment [1], PANI-H_S62R-L_F87Y-L_D92R (scFv) had a Kd of 5.36 nM, an off-rate constant (koff) of 0.00112 s⁻¹ and a kon of 209000 M⁻¹ s⁻¹. In the experiment with human EGFR (human), this molecule came in with an equilibrium dissociation constant (Kd) of 3.38 nM, an off-rate constant (koff) of 0.00099 s⁻¹ and an association rate constant (kon) of 293000 M⁻¹ s⁻¹.

B1: EGFR-Protein-4 (bispecific antibody, part only; not given: unrelated Fab, Fc and junctions, not shown: another chain or arm of the molecule; a dimerising Fc or GST)
scFv: DIQMTQSPSSLSASVGDRVTITCQASQDISNYLNWYQQKPGKAPKLLIYDASNLETGVPSRFSGSGSGTDFTFTISSLQPEDIATYYCQHFRHLPLAFGCGTKVEIKGGGGSGGGGSGGGGSGGGGSQVQLQESGPGLVKPSETLSLTCTVSGGSVSSGDYYWTWIRQSPGKCLEWIGHIYYSGNTNYNPSLKSRLTISIDTSKTQFSLKLSSVTAADTAIYYCVRDRVTGAFDIWGQGTMVTVSS
Take B1: in experiment [2], the dissociation constant Kd turned out to be 2.36 nM, the koff came out at 0.000745 s⁻¹ and the kon was 316000 M⁻¹ s⁻¹.
